Literature values, collected in article PMC11806408.

Molecular target: BMP-10 GF growth factor (Homo sapiens) (UniProt O95393)
Sequence (O95393 317-424): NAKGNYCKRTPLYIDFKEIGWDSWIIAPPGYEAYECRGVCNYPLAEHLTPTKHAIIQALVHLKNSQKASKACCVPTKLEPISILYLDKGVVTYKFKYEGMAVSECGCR

Chain of BMP-10 PD prodomain (O95393 22-316): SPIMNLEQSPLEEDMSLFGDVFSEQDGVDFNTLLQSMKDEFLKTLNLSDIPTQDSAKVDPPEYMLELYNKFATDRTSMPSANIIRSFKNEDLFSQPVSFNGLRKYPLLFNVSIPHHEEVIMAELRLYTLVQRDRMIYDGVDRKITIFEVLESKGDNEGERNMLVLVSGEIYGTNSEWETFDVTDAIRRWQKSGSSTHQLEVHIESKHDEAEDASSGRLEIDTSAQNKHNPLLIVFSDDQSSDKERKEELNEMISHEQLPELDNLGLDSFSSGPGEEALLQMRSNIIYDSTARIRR

Kd: 7 nM
Substance: BMP-10 PD prodomain (from UniProt O95393)
